Assay results: US11214614B2, “LTBP complex-specific inhibitors of TGFβ and uses thereof” (Scholar Rock, Inc., priority 2019, dated 2022)
Substitutions are numbered along the chain they refer to.

B1: LTBP-SR-AB42 HuFab (antibody, V domains shown)
VH: QVQLVESGGGVVQPGRSLRLSCAASGFTFRSYVMHWVRQAPGKGLEWVAVISHEGSLKYYADSVKGRFTISRDNSKNTLYLQMNSLRAEDTAVYYCARPRIAARRGGFGYWGQGTLVTVSS
VL: NFMLTQPHSVSESPGKTVTISCTRSSGNIDNNYVQWYQQRPGSSPTTVIYEDNQRPSGVPDRFSGSIDSSSNSASLTISGLKTEDEADYYCQSYDYDTQGVVFGGGTKLTVL
B2: SR-AB51 Fab (antibody, V domains shown)
VH: B1 VH with L57G, Y110T
VL: B1 VL with N31Y, Q54V, T98N, G100A
B3: SR-AB46 Fab (antibody, V domains shown)
VH: B1 VH with L57G, Y110S
VL: B1 VL with N31Y, Q54V, Y96S, T98N, G100R
B4: SR-AB48 Fab (antibody, V domains shown)
VH: B1 VH with L57G, Y110S
VL: B1 VL with N31Y, Q54V
B5: SR-AB41 Fab (antibody, V domains shown)
VH: B1 VH
VL: B1 VL with T98N, G100A
B6: SR-AB61 Fab (antibody, V domains shown)
VH: B1 VH with L57G, R98L, Y110T
VL: B1 VL with N31Y, Q54V, S93G, Y96W
B7: SR-AB34: cycle 3 light chain-optimized antibody, lineage SR-AB22; CDRs SEQ ID NO: 130-135 (antibody, V domains shown)
VH: B1 VH with R98V
VL: B1 VL with T98A
B8: SR-AB41: cycle 3 light chain-optimized antibody, lineage SR-AB23; CDRs SEQ ID NO: 160-165 (antibody, V domains shown)
VH: B1 VH
VL: B1 VL with T98N, G100A
B9: SR-AB39: cycle 3 light chain-optimized antibody, lineage SR-AB22; CDRs SEQ ID NO: 148-153 (antibody, V domains shown)
VH: B1 VH with R98V
VL: B1 VL with N28L, N31D, N53A, Y96H, T98E
B10: SR-AB45: cycle 3 light chain-optimized antibody, lineage SR-AB23; CDRs SEQ ID NO: 184-189 (antibody, V domains shown)
VH: B1 VH
VL: B1 VL with N28A, N31D, N53F, Y96D, T98L
B11: SR-AB38: cycle 3 light chain-optimized antibody, lineage SR-AB22; CDRs SEQ ID NO: 142-147 (antibody, V domains shown)
VH: B1 VH with R98V
VL: B1 VL with N28S, N53F, Q54I, Y96D, T98L
B12: SR-AB37: cycle 3 light chain-optimized antibody, lineage SR-AB22; CDRs SEQ ID NO: 136-141 (antibody, V domains shown)
VH: B1 VH with R98V
VL: B1 VL with N28L, N31D, Y96S, T98L, G100R
B13: SR-AB44: cycle 3 light chain-optimized antibody, lineage SR-AB23; CDRs SEQ ID NO: 178-183 (antibody, V domains shown)
VH: B1 VH
VL: B1 VL with S26H, N31D, Q54V, Y96S, T98N, G100L

Each molecule was assayed against T1, huLTBP1 proTGFβ1 (Homo sapiens, UniProt P01137+Q14766) (assay: SPR (Biacore 8K) monovalent binding kinetics of Fabs, biotinylated antigen captured). Conditions: Table 27, Hu LTBP1-ProTGFβ1.
T1 sequence (P01137 30-390): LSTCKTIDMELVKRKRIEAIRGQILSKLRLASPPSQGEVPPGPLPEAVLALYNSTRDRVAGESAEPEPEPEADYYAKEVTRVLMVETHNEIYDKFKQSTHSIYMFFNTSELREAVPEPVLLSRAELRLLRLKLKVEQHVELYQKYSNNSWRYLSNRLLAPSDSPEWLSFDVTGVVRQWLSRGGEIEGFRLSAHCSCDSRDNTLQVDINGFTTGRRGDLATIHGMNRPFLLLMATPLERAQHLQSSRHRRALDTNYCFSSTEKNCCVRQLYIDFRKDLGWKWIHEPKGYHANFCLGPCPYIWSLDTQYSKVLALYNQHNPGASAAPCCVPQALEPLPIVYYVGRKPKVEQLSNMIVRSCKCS
T1 sequence (Q14766 347-1721 limits assumed): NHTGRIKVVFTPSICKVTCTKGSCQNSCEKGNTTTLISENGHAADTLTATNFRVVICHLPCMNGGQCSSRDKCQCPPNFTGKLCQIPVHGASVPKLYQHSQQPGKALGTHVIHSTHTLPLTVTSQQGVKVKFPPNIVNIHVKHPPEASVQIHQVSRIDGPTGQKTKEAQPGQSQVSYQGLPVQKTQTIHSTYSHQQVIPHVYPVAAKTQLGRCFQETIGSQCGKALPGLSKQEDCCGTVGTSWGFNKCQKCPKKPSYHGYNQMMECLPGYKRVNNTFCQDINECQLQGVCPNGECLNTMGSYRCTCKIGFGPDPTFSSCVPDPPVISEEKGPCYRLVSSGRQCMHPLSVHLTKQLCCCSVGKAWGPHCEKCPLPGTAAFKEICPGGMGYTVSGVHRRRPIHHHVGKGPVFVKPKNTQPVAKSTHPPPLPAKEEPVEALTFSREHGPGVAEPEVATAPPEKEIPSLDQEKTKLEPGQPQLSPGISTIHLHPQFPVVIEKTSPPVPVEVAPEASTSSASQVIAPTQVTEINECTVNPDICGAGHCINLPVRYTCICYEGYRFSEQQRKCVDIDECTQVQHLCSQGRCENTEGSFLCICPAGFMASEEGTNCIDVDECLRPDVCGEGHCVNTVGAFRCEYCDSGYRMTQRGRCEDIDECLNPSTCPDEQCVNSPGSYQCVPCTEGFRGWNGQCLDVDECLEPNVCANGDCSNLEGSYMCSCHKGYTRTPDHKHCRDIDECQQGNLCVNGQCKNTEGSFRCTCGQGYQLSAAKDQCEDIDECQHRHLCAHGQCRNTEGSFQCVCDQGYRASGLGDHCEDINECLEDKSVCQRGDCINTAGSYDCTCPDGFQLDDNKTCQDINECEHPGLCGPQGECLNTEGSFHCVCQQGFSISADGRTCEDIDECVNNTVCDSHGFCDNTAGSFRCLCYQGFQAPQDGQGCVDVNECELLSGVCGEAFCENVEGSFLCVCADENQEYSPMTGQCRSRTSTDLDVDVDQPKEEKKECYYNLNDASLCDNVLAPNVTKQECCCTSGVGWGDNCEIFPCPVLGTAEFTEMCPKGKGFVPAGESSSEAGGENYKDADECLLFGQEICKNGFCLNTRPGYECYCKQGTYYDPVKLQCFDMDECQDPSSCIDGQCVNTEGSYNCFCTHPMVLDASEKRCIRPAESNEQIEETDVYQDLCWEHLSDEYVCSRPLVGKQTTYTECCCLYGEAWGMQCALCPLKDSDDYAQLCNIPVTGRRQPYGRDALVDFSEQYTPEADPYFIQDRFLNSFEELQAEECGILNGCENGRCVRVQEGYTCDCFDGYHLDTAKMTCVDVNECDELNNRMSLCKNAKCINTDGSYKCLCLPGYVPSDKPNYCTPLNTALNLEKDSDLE
Parameters: biotin (complex biotinylated)
Method: A Biacore 8K system was employed to determine the monovalent binding affinity and the kinetic parameters for antigen binding of test antibodies. Association and dissociation kinetics of Fab fragments SR-AB42-HuFab, SR-AB63-HuFab and SR-AB43-HuFab to antigen complexes were measured, and resulting ka, kd and KD are provided below. Briefly, the binding kinetics were evaluated by surface plasmon resonance using Biacore 8K (GE Healthcare). Biotinylated capture antigens were immobilized to the chip (10 nM, ˜200 RU loading). A Biotin CAPture sensor chip was used to capture the biotinylated antigens. Fabs at 10, 5, 2.5, 1.25, and 0.6 nM concentrations were injected over the captured antigens. 0 nM was used as a reference. Affinities of LTBP antibodies to GARP and LRRC33 were confirmed using higher concentration of Fabs (100, 50, 25, 12.5, 6.25 nM). 0 nM was used as a reference. Multi-cycle kinetics was employed where each analyte concentration was injected in a separate cycle and the sensor chip surface was regenerated after each cycle. All the assays were carried out in freshly prepared 1×HBS-EP+buffer (10 mM HEPES, 150 mM NaCl, 3 mM EDTA, 0.05% Tween20, pH 7.4). Data were fit globally to a 1:1 binding model to obtain the kinetic parameters. The sensorgram for 0 nM analyte concentration was used as reference.
• 96 well plates—Greinerbio-one REF 650101 • Microplate Foils—GE Healthcare—CAT #28-9758-16 • Biotin CAPture Kit GE Healthcare product number 28920233 • Biacore running buffer—supplied as a 20× solution, diluted in Milli-Q water, TEKnova CAT #H8022 Method:
These experiments were performed using the Biacore 8K using the method “multi-cycle kinetics/affinity using Biotin CAPture kit.”
Data collection rate was set to 10 Hz and the Biotin CAPture step was performed for 300 seconds with a flow rate of 2 μL/minute. The Biotin CAPture reagent was used after a 1:5 dilution in 1× Biacore running buffer. Biotinylated ligands (the various complexes of TGFβ1) were utilized at a concentration of 10 nM and were immobilized to the sensor chip for 180 seconds with a flow rate of 10 μL/minute. The analytes, which are each of the Fabs, were tested at 10, 5, 2.5, 1.25, and 0.625 nM with a 0 nM control included. Analyte contact time was 120 seconds and the dissociation time was 900 seconds. The regeneration cycle utilized was 120 seconds with a flow rate of 10 μL/minute.
The evaluation method used was “multi-cycle affinity using capture” and a 1:1 binding model was used. […] Global fits were utilized for every KD determination.
In the case of B1, the Kd is reported as 0.38 nM.

What follows are molecules tested on proTGFβ1 presented by endogenous LTBP1/3 in LN229 cells (assay: Endogenous LTBP caga assay: LN229 cells transfected with human proTGFβ1 only, CAGA12 luciferase reporter cells). Conditions: Table 20: protocol of Example 10 with Fabs (RefAb also as hIgG4), assay format not stated.
Chain of proTGFβ1 presented by endogenous LTBP1/3 in LN229 cells (P01137 30-390): as the sequence (P01137 30-390) above
Assay type: cell-based
With B2 the IC50 was 0.535 nM.
B3 gave an IC50 of 0.495 nM.
Molecule B4 has an IC50 of 0.523 nM.
B5 was tested, and the IC50 was 0.486 nM.
In the case of B6, the IC50 is reported as 0.47 nM.

What follows are molecules tested against huLTBP3 proTGFβ1 (Homo sapiens, UniProt P01137+Q9NS15) (assay: Octet (BLI) binding, IgG captured on AHC tips, antigen at 100 nM). Conditions: Table 9; cycle 3; IgG1-agly; 1:1 fit.
Chain of huLTBP3 proTGFβ1 (P01137 30-390): as above
Chain of huLTBP3 proTGFβ1 (Q9NS15 44-1303): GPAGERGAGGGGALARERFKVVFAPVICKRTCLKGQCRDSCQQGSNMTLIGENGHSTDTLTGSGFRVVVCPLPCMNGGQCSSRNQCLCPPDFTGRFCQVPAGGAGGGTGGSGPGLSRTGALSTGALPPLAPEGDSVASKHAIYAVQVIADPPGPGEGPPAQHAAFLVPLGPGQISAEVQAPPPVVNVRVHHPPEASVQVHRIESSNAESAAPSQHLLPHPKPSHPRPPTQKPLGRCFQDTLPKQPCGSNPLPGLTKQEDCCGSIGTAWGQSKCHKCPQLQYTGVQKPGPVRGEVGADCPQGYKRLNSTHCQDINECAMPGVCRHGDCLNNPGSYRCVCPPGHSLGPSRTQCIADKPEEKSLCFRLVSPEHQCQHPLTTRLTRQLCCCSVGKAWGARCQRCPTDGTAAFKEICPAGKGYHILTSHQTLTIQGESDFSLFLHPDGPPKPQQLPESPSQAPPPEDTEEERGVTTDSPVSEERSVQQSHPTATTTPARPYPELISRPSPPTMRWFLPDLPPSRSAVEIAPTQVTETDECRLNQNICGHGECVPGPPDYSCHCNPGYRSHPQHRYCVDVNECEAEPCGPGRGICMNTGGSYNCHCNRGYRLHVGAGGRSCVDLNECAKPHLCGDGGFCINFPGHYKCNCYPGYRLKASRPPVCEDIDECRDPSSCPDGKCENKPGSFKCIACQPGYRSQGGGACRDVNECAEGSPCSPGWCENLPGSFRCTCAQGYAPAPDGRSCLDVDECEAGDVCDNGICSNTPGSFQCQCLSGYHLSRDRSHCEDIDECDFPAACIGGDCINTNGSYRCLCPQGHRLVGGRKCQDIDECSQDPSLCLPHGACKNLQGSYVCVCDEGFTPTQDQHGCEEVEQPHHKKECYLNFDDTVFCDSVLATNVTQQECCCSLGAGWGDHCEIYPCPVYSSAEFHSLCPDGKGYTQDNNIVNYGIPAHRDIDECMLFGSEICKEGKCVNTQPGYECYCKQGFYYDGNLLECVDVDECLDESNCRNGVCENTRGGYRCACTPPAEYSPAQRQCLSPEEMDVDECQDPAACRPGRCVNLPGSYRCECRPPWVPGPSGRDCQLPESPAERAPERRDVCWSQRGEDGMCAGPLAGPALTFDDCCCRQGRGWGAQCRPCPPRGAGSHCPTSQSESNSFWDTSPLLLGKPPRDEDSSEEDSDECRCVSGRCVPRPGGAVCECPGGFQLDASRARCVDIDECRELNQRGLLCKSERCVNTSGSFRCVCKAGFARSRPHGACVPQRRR
Method: (§1) Suitable methods for in vitro binding assays to determine the parameters of binding kinetics include Bio-layer Interferometry (BLI)-based assays such as Octet, and surface plasmon resonance (SPR)-based assays, such as Biacore systems (see, for example: biophysics.bioc.cam.ac.uk/wp-content/uploads/2011/02/Biacore_assay_handbook.pdf).
(§2) The affinity of SR-AB10, SR-AB2 and SR-AB13 was measured by Octet assay. The protocol used to measure the affinity of the antibodies to the complexes provided herein is summarized below.
(§3) • 96 well black polypropylene plates • AHC Octet tips (anti-human IgG Fc capture tips) (FortdBio) • 10× kinetics buffer (FortdBio) (diluted to 1× in PBS) • reiner Bio-One 96-Well Half Area Microplates (VWR cat #82050-044) Procedure:
(§4) Notes: The volume within each well during an Octet experiment is 100 uL.
(§5) A shake speed of 1000 rpm is used for all assay steps.
(§6) Pre-Wet Tips: • Biosensors must be pre-wet in 1× kinetics buffer (lx KB) for at least 10 minutes before starting an experiment. This can be done inside the Octet or on the bench.
(§7) Loading: • Tips are baselined in 1× KB for 1 minute before loading. • AHC tips are loaded with antibody at a concentration of 1 μg/mL (˜7 nM) for 3 minutes. A limit is set so that loading will stop when any one sensor reaches a response of 1 nanometer. • Tips are baselined in buffer for 1 minute after loading. The antibody should not dissociate from the tips during this time.
(§8) Antigen Association: • TGFβ1 in complex with various presentation molecules was associated to the immobilized antibodies at a single concentration of 100 nM in 1× KB.
(§9) Antibody Dissociation: • Dissociation in 1×KB was performed for 3 minutes.
(§10) Data Analysis using ForteBio Data analysis software 8.2: • Processing: align Y axis to last 5 seconds of baseline, perform inter-step correction with align to dissociation, and perform Savitzky-Golay filtering. • Analysis: 1:1 fitting model is utilized. Fitting is local and full. […] Results:
(§11) LTBP complex-specific antibodies from the first round of affinity maturation/optimization (SR-AB14, SR-AB16, SR-AB17, SR-AB18, SR-AB19) were selected for a second round of affinity maturation/optimization (i.e., CDR-H3 mutagenesis as described herein) and particular progeny antibodies (SR-AB20, SR-AB21, SR-AB22, SR-AB23, SR-AB24, SR-AB25, SR-AB26, SR-AB27, SR-AB28, and SR-AB29) were assessed for their ability to bind various proTGFβl constructs. Binding affinities of the optimized antibodies were measured by Octet against human LTBP1-proTGFβI, human LTBP3-proTGFb1, mouse LTBP1-proTGFβ1, mouse LTBP3-proTGFb1, and GARP-proTGFβl complexes, essentially as described in Example 6. In brief, test antibodies were immobilized to the surface of anti-human Fc capture biosensors (AHC) (ForteBio®) and binding was then tested against the various TGFβ1 complexes at a single concentration of 100 nM to assess binding affinities. The antigens were allowed to associate for 3 minutes followed by a 5-minute dissociation. Kinetics buffer (ForteBio®) was used throughout the experiment, and KD was determined using a 1:1 fitting model for each antibody antigen pair.
(§12) Binding affinities of the optimized antibodies were measured by Octet against human LTBP1-proTGFβ1, human LTBP3-proTGFβ1, mouse LTBP1-proTGFβ1, mouse LTBP3-proTGFβ1, and GARP-proTGFβ1 complexes, essentially as described in Example 6. In brief, test antibodies were immobilized to the surface of anti-human Fc capture biosensors (AHC) (ForteBio®) and binding was then tested against the various TGFβ1 complexes at a single concentration of 100 nM to assess binding affinities. The antigens were allowed to associate for 3 minutes followed by a 5-minute dissociation. Kinetics buffer (ForteBio®) was used throughout the experiment, and KD was determined using a 1:1 fitting model for each antibody antigen pair.
B7 was tested, and the “Hu LTBP3-proTGFβ1 Kon” value was 372000 M⁻¹ s⁻¹.
B8 was tested, and the “Hu LTBP3-proTGFβ1 Kon” value was 255000 M⁻¹ s⁻¹.
For B9, the “Hu LTBP3-proTGFβ1 Kon” value was 441000 M⁻¹ s⁻¹.
B10 was tested, and the “Hu LTBP3-proTGFβ1 Kon” value was 491000 M⁻¹ s⁻¹.
In the case of B11, the “Hu LTBP3-proTGFβ1 Kon” value is reported as 502000 M⁻¹ s⁻¹.
In the case of B12, the “Hu LTBP3-proTGFβ1 Kon” value is reported as 545000 M⁻¹ s⁻¹.
In the case of B13, the “Hu LTBP3-proTGFβ1 Kon” value is reported as 410000 M⁻¹ s⁻¹.

Same assay, conditions: Table 9; cycle 3; IgG1-agly; 5-minute dissociation
In the case of B7, the “Hu LTBP3-proTGFβ1 Koff” value is reported as 6.68e-05 s⁻¹.
In the case of B8, the “Hu LTBP3-proTGFβ1 Koff” value is reported as 6e-05 s⁻¹.
In the case of B9, the “Hu LTBP3-proTGFβ1 Koff” value is reported as 6e-05 s⁻¹.
B10 was tested, and the “Hu LTBP3-proTGFβ1 Koff” value was 6e-05 s⁻¹.
In the case of B11, the “Hu LTBP3-proTGFβ1 Koff” value is reported as 7.26e-05 s⁻¹.
For B12, the “Hu LTBP3-proTGFβ1 Koff” value was 7.58e-05 s⁻¹.
With B13 the “Hu LTBP3-proTGFβ1 Koff” value was 6e-05 s⁻¹.

What follows are molecules tested against T1, huLTBP1 proTGFβ1 in the same assay as above. Conditions: Table 9; cycle 3; IgG1-agly; 1:1 fit.
Method: as §1, §2, §3, §4, §5, §6, §7, §8, §9, §10, §11
as §12, with “pair. […]” for “pair.”
With B7 the “Hu LTBP1-proTGFβ1 Kon” value was 259000 M⁻¹ s⁻¹.
With B8 the “Hu LTBP1-proTGFβ1 Kon” value was 203000 M⁻¹ s⁻¹.
For B9, the “Hu LTBP1-proTGFβ1 Kon” value was 292000 M⁻¹ s⁻¹.
For B10, the “Hu LTBP1-proTGFβ1 Kon” value was 310000 M⁻¹ s⁻¹.
In the case of B11, the “Hu LTBP1-proTGFβ1 Kon” value is reported as 327000 M⁻¹ s⁻¹.
With B12 the “Hu LTBP1-proTGFβ1 Kon” value was 360000 M⁻¹ s⁻¹.
For B13, the “Hu LTBP1-proTGFβ1 Kon” value was 280000 M⁻¹ s⁻¹.

Same assay, conditions: Table 9; cycle 3; IgG1-agly; 5-minute dissociation
In the case of B7, the “Hu LTBP1-proTGFβ1 Koff” value is reported as 6e-05 s⁻¹.
For B8, the “Hu LTBP1-proTGFβ1 Koff” value was 6e-05 s⁻¹.
B9 was tested, and the “Hu LTBP1-proTGFβ1 Koff” value was 6e-05 s⁻¹.
With B10 the “Hu LTBP1-proTGFβ1 Koff” value was 6e-05 s⁻¹.
With B11 the “Hu LTBP1-proTGFβ1 Koff” value was 0.000117 s⁻¹.
With B12 the “Hu LTBP1-proTGFβ1 Koff” value was 0.000118 s⁻¹.
With B13 the “Hu LTBP1-proTGFβ1 Koff” value was 6e-05 s⁻¹.
